Starred links: 1 amine or outer side, 2 acyl side, 3 side chain; linkers in the order of their positions; H or OH if unused. Non-standard residues stand in square brackets, D forms with d. Groups on a side chain read outwards from the residue. No end group written: not given here. *: point of attachment. C18 diacid = O=C(O)CCCCCCCCCCCCCCCCC(=O)*; γGlu = O=C(O)[C@H](CCC(=O)[*:2])N[*:1]; εLys = N[C@@H](CCCCN[*:1])C(=O)[*:2]; Aib = CC(C)(N)C(=O)O
Columns and labels:
[1] = target: human GLP-1 receptor (human, UniProt P43220 24-463); assay: cell-based or functional assay
[2] = target: T1, human GIP receptor (human, UniProt P48546 22-466); assay: cell-based or functional assay
T1 sequence (looked up): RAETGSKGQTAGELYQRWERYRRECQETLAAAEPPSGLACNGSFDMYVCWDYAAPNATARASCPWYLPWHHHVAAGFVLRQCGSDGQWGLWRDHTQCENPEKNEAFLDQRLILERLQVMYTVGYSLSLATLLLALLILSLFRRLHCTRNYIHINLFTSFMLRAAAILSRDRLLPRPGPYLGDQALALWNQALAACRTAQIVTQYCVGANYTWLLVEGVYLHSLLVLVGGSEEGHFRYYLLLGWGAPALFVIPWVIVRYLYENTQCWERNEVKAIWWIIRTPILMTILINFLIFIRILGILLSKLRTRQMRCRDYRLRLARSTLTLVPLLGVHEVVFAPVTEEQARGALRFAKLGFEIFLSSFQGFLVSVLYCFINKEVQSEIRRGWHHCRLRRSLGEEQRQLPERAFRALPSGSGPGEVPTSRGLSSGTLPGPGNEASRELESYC

| Binder | hGLP-1R, CRE Luc 0% HSA EC50 (pM) [1] | hGLP-1R, CRE Luc 1% HSA EC50 (pM) [1] | hGIPR, CRE Luc 0% HSA EC50 (pM) [2] | hGIPR, CRE Luc 1% HSA EC50 (pM) [2] |
| --- | --- | --- | --- | --- |
| Y[Aib]EGTFTSDYSIYLEK([εLys-εLys-γGlu-C18 diacid])QAAREFINWLLAGGPSSGAPPPS-OH (N-terminus assumed; SMILES CC[C@H](C)[C@H](NC(=O)[C@H](Cc1ccccc1)NC(=O)[C@H](CCC(=O)O)NC(=O)[C@H](CCCNC(=N)N)NC(=O)[C@H](C)NC(=O)[C@H](C)NC(=O)[C@H](CCC(N)=O)NC(=O)[C@H](CCCCNC(=O)[C@@H](N)CCCCNC(=O)[C@@H](N)CCCCNC(=O)CC[C@H](NC(=O)CCCCCCCCCCCCCCCCC(=O)O)C(=O)O)NC(=O)[C@H](CCC(=O)O)NC(=O)[C@H](CC(C)C)NC(=O)[C@H](Cc1ccc(O)cc1)NC(=O)[C@@H](NC(=O)[C@H](CO)NC(=O)[C@H](Cc1ccc(O)cc1)NC(=O)[C@H](CC(=O)O)NC(=O)[C@H](CO)NC(=O)[C@@H](NC(=O)[C@H](Cc1ccccc1)NC(=O)[C@@H](NC(=O)CNC(=O)[C@H](CCC(=O)O)NC(=O)C(C)(C)NC(=O)[C@@H](N)Cc1ccc(O)cc1)[C@@H](C)O)[C@@H](C)O)[C@@H](C)CC)C(=O)N[C@@H](CC(N)=O)C(=O)N[C@@H](Cc1c[nH]c2ccccc12)C(=O)N[C@@H](CC(C)C)C(=O)N[C@@H](CC(C)C)C(=O)N[C@@H](C)C(=O)NCC(=O)NCC(=O)N1CCC[C@H]1C(=O)N[C@@H](CO)C(=O)N[C@@H](CO)C(=O)NCC(=O)N[C@@H](C)C(=O)N1CCC[C@H]1C(=O)N1CCC[C@H]1C(=O)N1CCC[C@H]1C(=O)N[C@@H](CO)C(=O)O) [Compound No. 11] | 3.3 pM | 132 pM | 9.9 pM | 450 pM |
| Y[Aib]EGTFTSDYSIYLEK([εLys-εLys-γGlu-C18 diacid])QAAREFINWLLAGGPSSGAPPPS-NH2 (N-terminus assumed; SMILES CC[C@H](C)[C@H](NC(=O)[C@H](Cc1ccccc1)NC(=O)[C@H](CCC(=O)O)NC(=O)[C@H](CCCNC(=N)N)NC(=O)[C@H](C)NC(=O)[C@H](C)NC(=O)[C@H](CCC(N)=O)NC(=O)[C@H](CCCCNC(=O)[C@@H](N)CCCCNC(=O)[C@@H](N)CCCCNC(=O)CC[C@H](NC(=O)CCCCCCCCCCCCCCCCC(=O)O)C(=O)O)NC(=O)[C@H](CCC(=O)O)NC(=O)[C@H](CC(C)C)NC(=O)[C@H](Cc1ccc(O)cc1)NC(=O)[C@@H](NC(=O)[C@H](CO)NC(=O)[C@H](Cc1ccc(O)cc1)NC(=O)[C@H](CC(=O)O)NC(=O)[C@H](CO)NC(=O)[C@@H](NC(=O)[C@H](Cc1ccccc1)NC(=O)[C@@H](NC(=O)CNC(=O)[C@H](CCC(=O)O)NC(=O)C(C)(C)NC(=O)[C@@H](N)Cc1ccc(O)cc1)[C@@H](C)O)[C@@H](C)O)[C@@H](C)CC)C(=O)N[C@@H](CC(N)=O)C(=O)N[C@@H](Cc1c[nH]c2ccccc12)C(=O)N[C@@H](CC(C)C)C(=O)N[C@@H](CC(C)C)C(=O)N[C@@H](C)C(=O)NCC(=O)NCC(=O)N1CCC[C@H]1C(=O)N[C@@H](CO)C(=O)N[C@@H](CO)C(=O)NCC(=O)N[C@@H](C)C(=O)N1CCC[C@H]1C(=O)N1CCC[C@H]1C(=O)N1CCC[C@H]1C(=O)N[C@@H](CO)C(N)=O) [Compound No. 8] | 2.3 pM | 82.1 pM | 6.7 pM | 191 pM |
| Y[Aib]EGTFTSDYSIYLEK([εLys-εLys-γGlu-C18 diacid])QAAREFIEWLLRGGPSSGAPPPS-OH (N-terminus assumed; SMILES CC[C@H](C)[C@H](NC(=O)[C@H](Cc1ccccc1)NC(=O)[C@H](CCC(=O)O)NC(=O)[C@H](CCCNC(=N)N)NC(=O)[C@H](C)NC(=O)[C@H](C)NC(=O)[C@H](CCC(N)=O)NC(=O)[C@H](CCCCNC(=O)[C@@H](N)CCCCNC(=O)[C@@H](N)CCCCNC(=O)CC[C@H](NC(=O)CCCCCCCCCCCCCCCCC(=O)O)C(=O)O)NC(=O)[C@H](CCC(=O)O)NC(=O)[C@H](CC(C)C)NC(=O)[C@H](Cc1ccc(O)cc1)NC(=O)[C@@H](NC(=O)[C@H](CO)NC(=O)[C@H](Cc1ccc(O)cc1)NC(=O)[C@H](CC(=O)O)NC(=O)[C@H](CO)NC(=O)[C@@H](NC(=O)[C@H](Cc1ccccc1)NC(=O)[C@@H](NC(=O)CNC(=O)[C@H](CCC(=O)O)NC(=O)C(C)(C)NC(=O)[C@@H](N)Cc1ccc(O)cc1)[C@@H](C)O)[C@@H](C)O)[C@@H](C)CC)C(=O)N[C@@H](CCC(=O)O)C(=O)N[C@@H](Cc1c[nH]c2ccccc12)C(=O)N[C@@H](CC(C)C)C(=O)N[C@@H](CC(C)C)C(=O)N[C@@H](CCCNC(=N)N)C(=O)NCC(=O)NCC(=O)N1CCC[C@H]1C(=O)N[C@@H](CO)C(=O)N[C@@H](CO)C(=O)NCC(=O)N[C@@H](C)C(=O)N1CCC[C@H]1C(=O)N1CCC[C@H]1C(=O)N1CCC[C@H]1C(=O)N[C@@H](CO)C(=O)O) [Compound No. 12] | 4 pM | 54.4 pM | 9 pM | 71.5 pM |
